Square brackets hold non-standard residues; d marks the D form. Ends that are not written are not given here. Hyp = O=C(O)[C@@H]1C[C@@H](O)CN1
B1: synthetic peptide No. 18, … (SEQ ID NO: 22) (peptide)
peptide: LPGPPGPPG
modifications: also: hydroxyproline at marked P positions, if any, marking lost
B2: synthetic peptide No. 19, LPGFPG (SEQ ID NO: 23) (peptide)
peptide: L[Hyp]GF[Hyp]G
B3: synthetic peptide No. 16, LPGPPG (SEQ ID NO: 24) (peptide)
peptide: L[Hyp]GP[Hyp]G
B4: synthetic peptide No. 14, LPGLPG (SEQ ID NO: 25) (peptide)
peptide: L[Hyp]GL[Hyp]G
B5: synthetic peptide No. 10, LPGSPG (SEQ ID NO: 26) (peptide)
peptide: L[Hyp]GS[Hyp]G
B6: synthetic peptide No. 8, LPGTPG (SEQ ID NO: 27) (peptide)
peptide: L[Hyp]GT[Hyp]G

Experiments:
[1] = target: HUI77, murine IgM anti-denatured-collagen monoclonal antibody; test: competition ELISA on coated dn-collagen IV
[2] = target: D93, recombinant humanized IgG1 kappa antibody targeting denatured-collagen; test: competition ELISA on coated human dn-collagen IV
Chain of D93, recombinant humanized IgG1 kappa antibody targeting denatured-collagen (heavy, as listed by the source, chain 1 of 2): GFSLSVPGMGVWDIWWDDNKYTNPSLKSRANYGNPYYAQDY
Chain of D93, recombinant humanized IgG1 kappa antibody targeting denatured-collagen (light, as listed by the source, chain 2 of 2): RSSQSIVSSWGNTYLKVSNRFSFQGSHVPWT

[3] = test system: D93 binding to human denatured-collagen IV; test: Competition ELISA: synthetic peptides blocking D93 binding to heat denatured collagen IV; conditions: average of two studies, vs 1% BSA/PBS alone
Experimental: (§1) The ELISA was conducted as follows: wells of a 96-well microtiter plate (Immulon, 4 HBX flat-bottomed, Thermo Electron Corporation, Waltham, Mass.) were coated with 100 μL/well of dn-collagen IV at 10 μg/mL in Phosphate Buffered Saline (PBS) overnight at 4° C. The plate was washed 3 times (3×) with PBS containing 0.05% (v/v) Tween-20 (PBST) using an automated plate washer.
(§2) The plate was blocked by adding 300 μL/well of 1% BSA (w/v) in PBS for 1 hour at 25° C. followed by washing 3× in PBST as above.
(§3) Solutions of D93 or HUI77 were prepared with various concentrations of peptide or antibody inhibitor and incubate for 15 minutes. D93 or HUI77 was prepared at 200 ng/mL in 1% BSA/PBS.
(§4) For antibody blocking studies using synthetic peptides: peptide inhibitor stock solutions were prepared at 2 mM, 0.2 mM, 0.02 mM, and 0.002 mM in 1% BSA/PBS. 500 μL of a 2 mM peptide solution in 1% BSA/PBS was prepared and diluted 1:10 in 500 μL a total of three times to make peptide inhibitor concentrations.
(§5) 200 μL of D93 or HUI77 at 200 ng/mL solution was combined with 200 μL of peptide or antibody inhibitor solution and incubated for 15 minutes at room temperature.
(§6) D93 or HUI77 with various concentrations of inhibitors (2 mM, 0.2 mM, 0.02 mM, and 0.002 mM) were added to microplate wells and incubated for 1 hour at 25° C. The plate was washed 3× in PBST as above.
(§7) To each microtiter plate well, 100 μL of diluted anti-human IgG or anti-mouse IgM conjugated to horseradish peroxidase (HRP) in PBST was added and incubated for one hour at 25° C.: (a) for D93: Goat anti-human IgG-HRP (Jackson ImmunoResearch, Catalog No. 109-035-088) was used at 1:20,000 and (b) for HUI77: Goat anti-mouse IgM-HRP was used at 1:4,000. Plates were washed 3× in PBST as above.
(§8) Tetramethylbenzidine (TMB) substrate (100 μL; Pierce Chemicals)) was added to wells and the plates were allowed to develop at room temperature for 15 minutes in the dark. Substrate development was stopped by adding 50 μL/well of 2N H2SO4. The microtiter […] plates were read at 450 nm within five minutes of adding the H2SO4. Reactivity was measured with a microplate reader (Molecular Devices, Sunnyvale, Calif.) at a wavelength of 450 nm and analyzed using SOFTMax® PRO4.0 (Molecular Devices). All samples were tested in triplicate.
(§9) Individual peptides with amino acid substitutions and deletions were also synthesized based on the primary and secondary peptide arrays. […] The inhibitory activity of the individual peptides was tested by ELISA as previously described to measure binding of D93 or HUI77 to denatured collagen where peptides and antibodies were prepared at a 2× concentration and pre-incubated for 15 minutes prior to adding to microtiter plates coated with dn-collagen.
(§10) 96-well plates were coated with 100 μL/well of denatured (dn) collagen IV at 10 μg/mL in phosphate buffered saline (PBS) overnight at 4° C. followed by washing the plates in an automated plate washer 3 times in PBS containing 0.05% (v/v) Tween-20 (PBST). Non-specific binding was prevented by blocking the wells by adding 300 μL/well of 1% bovine serum albumin (BSA) (w/v) in PBS for 1 hour (hr) at 25° C. The plates were washed as above.
(§11) Solutions of D93 and HUI77 antibodies were prepared with various concentrations of inhibitor and incubated for 15 minutes. Briefly, 20 mLs of D93 or HUI77 were prepared at 200 ng/mL in 1% BSA/PBS. Solutions of peptide inhibitors (2 mM, 0.2 mM, […]) were prepared in 1% BSA/PBS. Equal volumes of antibodies and peptide inhibitors were combined: 200 μL of D93 or HUI77 (200 ng/mL solution) with 200 μL of each peptide solution.
(§12) 100 μL/well of D93 or HUI77 at 100 ng/mL with various concentrations of inhibitors were added to the wells in triplicate and incubated for 1 hour at 25° C. The plates were washed as described above.
(§13) 100 μL/well of secondary horseradish peroxidase (HRP)-conjugated antibody in PBST was added to each well and incubated for 1 hour (hr) at 25° C. […]

[4] = test system: HUI77 binding to denatured collagen IV; test: Competition ELISA: synthetic peptides blocking HUI77 binding to heat denatured collagen IV; design: species or system human; conditions: average of two studies
Experimental: as §1, §2, §3, §4, §5, §6, §7, §8, §9, §10, §11, §12, §13

[5] = peptide inhibitor concentration 10 μM, listed as 23 (33), 10 µM
[6] = peptide inhibitor concentration 100 μM, listed as 23 (33), 100 µM
[7] = peptide inhibitor concentration 1000 μM, listed as 23 (33), 1000 µM
[8] = peptide inhibitor concentration 10 μM
[9] = peptide inhibitor concentration 100 μM
[10] = peptide inhibitor concentration 1000 μM

% inhibition of HUI77 binding to dn-collagen IV, peptide 10 µM [1] [%]	% inhibition of HUI77 binding to dn-collagen IV, peptide 100 µM [1] [%]	% inhibition of HUI77 binding to dn-collagen IV, peptide 1000 µM [1] [%]	% inhibition of D93 binding to dn-collagen IV, peptide 1 µM [2] [%]	% inhibition of D93 binding to dn-collagen IV, peptide 10 µM [2] [%]	% inhibition of D93 binding to dn-collagen IV, peptide 100 µM [2] [%]	% inhibition of D93 binding to dn-collagen IV, peptide 1000 µM [2] [%]	further results	Molecule
6.5	9	14	9.5	6.5	11	52		synthetic peptide No. 21, GPPG (SEQ ID NO: 34)
							% INHIBITION OF BINDING OF D93 TO HUMAN DENATURED-COLLAGEN IV ([3]; peptide inhibitor concentration 1 μM, listed as 23 (33), 1 µM): 5%; % INHIBITION OF BINDING OF D93 TO HUMAN DENATURED-COLLAGEN IV [3, 5]: 4.5%; % INHIBITION OF BINDING OF D93 TO HUMAN DENATURED-COLLAGEN IV [3, 6]: 1.5%; % INHIBITION OF BINDING OF D93 TO HUMAN DENATURED-COLLAGEN IV [3, 7]: 6.5%; % INHIBITION OF BINDING OF HUI77 TO DENATURED COLLAGEN IV [4, 5]: 1.5%; % INHIBITION OF BINDING OF HUI77 TO DENATURED COLLAGEN IV [4, 6]: 2%; % INHIBITION OF BINDING OF HUI77 TO DENATURED COLLAGEN IV [4, 7]: 1%	GPPGPPG [SEQ ID NO: 33]
							% INHIBITION OF BINDING OF D93 TO HUMAN DENATURED-COLLAGEN IV ([3]; peptide inhibitor concentration 1 μM): 11%; % INHIBITION OF BINDING OF D93 TO HUMAN DENATURED-COLLAGEN IV [3, 8]: 43%; % INHIBITION OF BINDING OF D93 TO HUMAN DENATURED-COLLAGEN IV [3, 9]: 89.5%; % INHIBITION OF BINDING OF D93 TO HUMAN DENATURED-COLLAGEN IV [3, 10]: 93.5%; % INHIBITION OF BINDING OF HUI77 TO DENATURED COLLAGEN IV [4, 8]: 4.5%; % INHIBITION OF BINDING OF HUI77 TO DENATURED COLLAGEN IV [4, 9]: 9%; % INHIBITION OF BINDING OF HUI77 TO DENATURED COLLAGEN IV [4, 10]: 62%	F-Hyp-G-P-Hyp-G-P-D-G-L-P-G-S-M-G-P-Hyp-G (F[Hyp]GP[Hyp]GPDGLPGSMGP[Hyp]G) [SEQ ID NO: 36]
6.5	9	6	6	5	3	17.5		B1
7	14.5	75	10.5	6	8	32		B2
3	8	64	6.5	12	52.5	90		B3
6	9.5	17.5	8	6.5	6.5	46.5		B4
8	10.5	8.5	9.5	3.5	2.5	13.5		B5
3.5	4.5	6	7	2	4.5	24		B6
